Results reported in patent US20180016339A1 (University of Washington, published 2018).

Target: T1, human MICB expressed on cells (TRAMP-MICB) (human, UniProt Q29980 23-383)
T1 construct: also called TC2 derivative TRAMP-MICB
T1 sequence: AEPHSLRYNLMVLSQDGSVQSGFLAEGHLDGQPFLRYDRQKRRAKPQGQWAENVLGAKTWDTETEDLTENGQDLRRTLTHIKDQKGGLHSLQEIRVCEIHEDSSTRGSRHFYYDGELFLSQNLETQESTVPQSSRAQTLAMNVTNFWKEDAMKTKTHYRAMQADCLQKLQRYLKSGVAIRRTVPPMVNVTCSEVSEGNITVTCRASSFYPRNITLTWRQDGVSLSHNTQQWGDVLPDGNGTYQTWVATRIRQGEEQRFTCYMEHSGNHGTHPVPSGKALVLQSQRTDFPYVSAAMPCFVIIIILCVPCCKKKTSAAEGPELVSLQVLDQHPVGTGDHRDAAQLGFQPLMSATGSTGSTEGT
Experiment: flow cytometry on TRAMP-MICB cells, 2 ug/ml antibody, PE goat anti-mouse IgG
Protocol: Cells were analyzed with BD FACSscan. Data were analyzed with CellQuest software.

B1: monoclonal antibody P2B10G5 (antibody, V domains shown)
VH: EVQLEESGPGLVKPSQSLSLTCTVTGYSITSDYAWNWIRQFPGNKLEWMGYISYSGSTNYNPSLKSRISITRDTSKNQFFLQLNSVITEDTATYYCARGGTYFDYWGQGTTLTVSS
VL: DIVLTQTTSYLSVSLGGRVTIACKASAHINNWLAWYQQKPGNAPRLLISDATSLETGVPSRFSGSGSGKDYTLSITSLQTEDVATYYCQHYWSTPWTFGGGTKLEIKR
notes: Mouse hybridoma antibody, IgG1 kappa, raised against recombinant soluble MIC; also called mAb B10G5; anti-sMIC
  binding result: binds
